From paper PMC9854190

Molecular target: HA-Akt, P31749
Assay: co-immunoprecipitation (FLAG beads), HA-Akt band quantified
Settings: chain shown with the change, HEK-293 cells expressing D3R, n = 3, read off a plot

Sequence of HA-Akt, P31749 (P31749 whole entry): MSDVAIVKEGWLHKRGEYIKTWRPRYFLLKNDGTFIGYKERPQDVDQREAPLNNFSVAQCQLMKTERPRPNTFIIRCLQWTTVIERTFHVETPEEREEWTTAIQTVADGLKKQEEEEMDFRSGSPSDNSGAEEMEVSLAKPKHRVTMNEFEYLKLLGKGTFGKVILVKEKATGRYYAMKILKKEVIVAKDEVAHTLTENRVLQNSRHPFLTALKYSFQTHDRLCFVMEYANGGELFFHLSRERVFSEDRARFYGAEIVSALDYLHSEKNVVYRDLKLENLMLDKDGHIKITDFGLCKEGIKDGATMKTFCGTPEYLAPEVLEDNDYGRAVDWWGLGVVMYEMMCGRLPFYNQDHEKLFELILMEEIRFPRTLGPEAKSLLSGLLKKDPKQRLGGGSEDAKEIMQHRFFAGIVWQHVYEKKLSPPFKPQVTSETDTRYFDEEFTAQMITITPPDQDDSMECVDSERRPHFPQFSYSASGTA

B1: FLAG-USP33, Q8TEY7-2 T154A (protein)
chain: MSAFRNHCPHLDSVGEITKEDLIQKSLGTCQDCKVQGPNLWACLENRCSYVGCGESQVDHSTIHSQETKHYLTVNLTTLRVWCYACSKEVFLDRKLGTQPSLPHVRQPHQIQENSVQDFKIPSNTTLKTPLVAVFDDLDIEADEEDELRARGLAGLKNIGNTCYMNAALQALSNCPPLTQFFLDCGGLARTDKKPAICKSYLKLMTELWHKSRPGSVVPTTLFQGIKTVNPTFRGYSQQDAQEFLRCLMDLLHEELKEQVMEVEEDPQTITTEETMEEDKSQSDVDFQSCESCSNSDRAENENGSRCFSEDNNETTMLIQDDENNSEMSKDWQKEKMCNKINKVNSEGEFDKDRDSISETVDLNNQETVKVQIHSRASEYITDVHSNDLSTPQILPSNEGVNPRLSASPPKSGNLWPGLAPPHKKAQSASPKRKKQHKKYRSVISDIFDGTIISSVQCLTCDRVSVTLETFQDLSLPIPGKEDLAKLHSSSHPTSIVKAGSCGEAYAPQGWIAFFMEYVKRFVVSCVPSWFWGPVVTLQDCLAAFFARDELKGDNMYSCEKCKKLRNGVKFCKVQNFPEILCIHLKRFRHELMFSTKISTHVSFPLEGLDLQPFLAKDSPAQIVTYDLLSVICHHGTASSGHYIAYCRNNLNNLWYEFDDQSVTEVSESTVQNAEAYVLFYRKSSEEAQKERRRISNLLNIMEPSLLQFYISRQWLNKFKTFAEPGPISNNDFLCIHGGVPPRKAGYIEDLVLMLPQNIWDNLYSRYGGGPAVNHLYICHTCQIEAEKIEKRRKTELEIFIRLNRAFQKEDSPATFYCISMQWFREWESFVKGKDGDPPGPIDNTKIAVTKCGNVMLRQGADSGQISEETWNFLQSIYGGGPEVILRPPVVHVDPDILQAEEKIEVETRSL
- other: Folds of Co-IP (Quin +, parent: est. 0.97): 0.74 fold
- other: Folds of Co-IP (Quin w/+ (desensitization condition), parent: est. 1.7): 0.86 fold
- other: Folds of Co-IP (Veh (Quin -), parent: est. 0.97): 0.9 fold
